We go through 2 molecules from paper doi:10.1101/2024.05.17.594765.

Experiment [1] has as its target T1, C-terminally Halo-tagged full-length zyxin (zyxin-Halo), Q15942.
T1 chain: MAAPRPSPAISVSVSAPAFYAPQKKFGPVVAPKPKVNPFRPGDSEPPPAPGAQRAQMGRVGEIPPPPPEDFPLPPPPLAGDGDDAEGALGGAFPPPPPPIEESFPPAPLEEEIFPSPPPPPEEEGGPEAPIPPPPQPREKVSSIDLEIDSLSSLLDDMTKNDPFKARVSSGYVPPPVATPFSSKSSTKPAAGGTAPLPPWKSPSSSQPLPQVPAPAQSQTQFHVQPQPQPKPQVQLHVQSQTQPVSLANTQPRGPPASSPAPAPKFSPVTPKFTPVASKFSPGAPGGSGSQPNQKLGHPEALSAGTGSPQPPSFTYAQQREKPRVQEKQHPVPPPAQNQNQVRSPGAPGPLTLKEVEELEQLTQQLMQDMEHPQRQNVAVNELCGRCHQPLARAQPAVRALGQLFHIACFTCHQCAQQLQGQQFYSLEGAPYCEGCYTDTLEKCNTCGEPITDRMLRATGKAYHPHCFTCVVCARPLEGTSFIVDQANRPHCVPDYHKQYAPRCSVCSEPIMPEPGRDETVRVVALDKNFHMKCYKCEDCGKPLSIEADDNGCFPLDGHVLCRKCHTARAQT
In words: force reconstitution TIRF assay. The following applies: chain shown with the change; images were acquired every 1 s; parent: est. 490; read off a plot.

Experiment [2] deals with T2, zyxin mutant deficient in recruiting VASP, F(75, 97, 108, 118)A, Halo-tagged, Q15942.
T2 chain: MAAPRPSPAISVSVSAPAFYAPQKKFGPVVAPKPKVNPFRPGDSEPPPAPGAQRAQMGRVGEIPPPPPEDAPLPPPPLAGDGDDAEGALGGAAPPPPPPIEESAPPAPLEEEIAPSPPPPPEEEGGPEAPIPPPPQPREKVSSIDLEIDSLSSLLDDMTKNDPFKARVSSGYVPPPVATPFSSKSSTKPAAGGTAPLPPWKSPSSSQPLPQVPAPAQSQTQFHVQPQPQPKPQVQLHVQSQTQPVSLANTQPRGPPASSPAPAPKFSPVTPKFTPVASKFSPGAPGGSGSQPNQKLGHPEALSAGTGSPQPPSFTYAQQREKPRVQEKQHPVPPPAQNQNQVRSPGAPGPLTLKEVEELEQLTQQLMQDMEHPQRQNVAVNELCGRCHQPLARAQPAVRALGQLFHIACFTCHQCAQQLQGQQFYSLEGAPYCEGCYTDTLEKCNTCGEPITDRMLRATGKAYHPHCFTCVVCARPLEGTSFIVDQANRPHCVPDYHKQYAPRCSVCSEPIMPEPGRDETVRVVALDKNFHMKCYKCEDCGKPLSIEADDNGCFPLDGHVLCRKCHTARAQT
Description: force reconstitution TIRF assay. The following applies: chain shown with the change; images were acquired every 1 s; parent: est. 490; read off a plot.

B1: C-terminally Halo-tagged VASP (VASP-Halo), P50552 L226A; I231A; L235A; R273E; R274E; R275E; K276E (protein)
chain: SETVICSSRATVMLYDDGNKRWLPAGTGPQAFSRVQIYHNPTANSFRVVGRKMQPDQQVVINCAIVRGVKYNQATPNFHQWRDARQVWGLNFGSKEDAAQFAAGMASALEALEGGGPPPPPALPTWSVPNGPSPEEVEQQKRQQPGPSEHIERRVSNAGGPPAPPAGGPPPPPGPPPPPGPPPPPGLPPSGVPAAAHGAGGGPPPAPPLPAAQGPGGGGAGAPGAAAAAAGAKARKVSKQEEASGGPTAPKAESGRSGGGGLMEEMNAMLAEEEEATQVGEKTPKDESANQEEPEARVPAQSESVRRPWEKNSTTLPRMKSSSSVTTSETQPCTPSSSDYSDLQRVKQELLEEVKKELQKVKEEIIEAFVQELRKRGSP
For B1, the other: Number of Binding Events (mean) in experiment [1] was found to be 180.

B2: m6; m1 VASP:L226A; VASP:I231A; VASP:L235A; VASP:R273E; VASP:R274E; VASP:R275E; VASP:K276E; zyxin:F75A; zyxin:F97A; zyxin:F108A; zyxin:F118A (protein)
chain: SETVICSSRATVMLYDDGNKRWLPAGTGPQAFSRVQIYHNPTANSFRVVGRKMQPDQQVVINCAIVRGVKYNQATPNFHQWRDARQVWGLNFGSKEDAAQFAAGMASALEALEGGGPPPPPALPTWSVPNGPSPEEVEQQKRQQPGPSEHIERRVSNAGGPPAPPAGGPPPPPGPPPPPGPPPPPGLPPSGVPAAAHGAGGGPPPAPPLPAAQGPGGGGAGAPGAAAAAAGAKARKVSKQEEASGGPTAPKAESGRSGGGGLMEEMNAMLAEEEEATQVGEKTPKDESANQEEPEARVPAQSESVRRPWEKNSTTLPRMKSSSSVTTSETQPCTPSSSDYSDLQRVKQELLEEVKKELQKVKEEIIEAFVQELRKRGSP
As to B2, the other: Number of Binding Events (mean) in experiment [2] turned out to be 30.
